The results in this text go back to patent US20020031761A1, “Binding moieties for human parvovirus B19” (priority 1998, published 2002).

Positions of bridges follow the written chain, without caps; N, C: chain ends. No end group written: not given here.

Test [1] concerns the target parvovirus B19 capsid proteins VP1-VP2 (Human parvovirus B19, UniProt P07299). The test is described as follows: Batch depletion of B19 capsid proteins from solution by immobilized peptide affinity media, supernatant ELISA. The test is classed as binding. As to conditions: peptide immobilized on formyl 750-M resin; 1 hour at room temperature; compared with blank media; ELISA at 5-minute time point. As to the method:
The two peptide ligands were immobilized on an aldehyde-functional methacrylate resin support (TosoHaas formyl 750-M; Montgomeryville, Pa.). The peptides were first weighed and dissolved into immobilization buffer (100 mM NaOAc, 150 mM NaCi, 0.1% Tween 20, pH 5.0). A sample of the dissolved peptides was taken for concentration analysis. The chromatography media was measured and washed twice with immobilization buffer. The media and peptide were mixed together and tumbled overnight at room temperature. After the reaction, the supernatant was analyzed for residual peptide and the resultant B19 affinity media was washed with deionized water, 1M NaCl, Tris buffer with 1M NaCl, and twice with PBS. The immobilization data are set forth below:
These parvovirus B19 affinity media were evaluated for the ability of the immobilization ligand to recognize and bind to parvovirus B19 capsid proteins VP1-VP2. Each of the prepared media was evaluated for its ability to deplete a solution of parvovirus B19 capsid proteins as compared to a blank control (media only). […] The capsid protein stock solution was prepared by diluting 30 μl of the purified capsid protein solution (Absorbance at 280 nm=2) with 320 μl of stabilizing buffer. […]
Each sample was analyzed with a standard ELISA for the presence or absence of B19 capsid proteins at ten-fold serial dilution into stabilizing buffer. […]
Background: An ELISA detects its analyte on a solid surface through an enzyme-linked reagent.

In test [2] the target is VP1-VP2 (Human parvovirus B19, UniProt P07299). The test can be described thus: Relative binding ELISA, constant phage against decreasing amounts of VP1-VP2. As to conditions: among the 18 selected phage isolates. As to the method:
(§1) Based on the ELISA data and the sequence similarities within each library, the 18 isolates (Tables 1-3) were selected and evaluated further with respect to their binding characteristics to VP1-VP2. Relative binding of each isolate was studied by ELISA. Each selected phage isolate, held at a constant amount, was contacted with decreasing amounts per well of VP1-VP2, the amounts coating each dextrin well varying from 2 μl down to 0.001 μl. Bound phage were detected as described before using polyclonal anti-phage antibody. […] Using VP1-VP2 at 1:10 dilution as an arbitrary point, a value for the signal was interpolated, and the relative binding strengths are reflected in Tables 1-3, above.

The target in test [3] is T1, purified, recombinant parvovirus B19 capsid proteins VP1 and VP2 (VP1-VP2) (human parvovirus B19, UniProt P07299 1-781; P07299 1-554).
T1 construct: Surrogate target: partially purified/purified recombinant VP1 + VP2 preparation; Made by methods of US 5,498,413 or WO 91/12269
The test is described as follows: phage ELISA; VP1-VP2 coated on dextrin plates, HRP anti-M13 detection. The protocol: (§2) From convergent screens of phage display libraries, eluted phage were propagated and 376 phage isolates were selected randomly and individually tested for binding to VP1-VP2 by standard ELISA techniques, using a polyclonal anti-phage antibody to detect bound phage. Briefly, VP1-VP2 (2 μl per well) was coated on dextrin plates, blocked with BSA, and individual phage isolates were added to the wells (50 μl, 10⁹ pfu per well). After washing, bound phage were incubated with the detection anti-phage antibodies (100 μl per well HRP-conjugated anti-M13 antibody in PBS-Tween (Pharmacia Inc.)). Wild type phage, displaying no non-phage peptide, were employed as controls. The bound antibody was detected by adding 100 μl per well of two-component TMB (tetramethylbenzidine; Kirkegaard & Perry).

Test [4] addresses T1, purified, recombinant parvovirus B19 …. The test is described as follows: phage ELISA, constant phage against decreasing VP1-VP2 coat; normalized signal interpolated at 1:10 dilution of VP1-VP2. As to the method: as §2, §1

Regarding “AEGTGDFCWLWPAHSCHDPGPEGGGS (cysteine pairing not given here) [H03-TN09]”, in test [1], the “depletion / clearing of B19 capsid proteins from solution” value is “able to effectively bind parvovirus B19 capsid proteins and clear them from solution”.

Consider “AEGTGDFFCSFWHGGCDDDPGPEGGGS (cysteine pairing not given here) [A01-TN8]”, for which the “ranking of relative binding strength to VP1-VP2” value in test [2] is on record as “two highest-ranking isolates”. Further, the “depletion / clearing of B19 capsid proteins from solution” value in test [1] was “able to effectively bind parvovirus B19 capsid proteins and clear them from solution”.

B1: H03-TN9 phage isolate (peptide, not shown: large carriers)
peptide: FCWLWPAHSCH
modifications: disulfide 2-10 (inferred); also: displayed on M13 phage, coat protein fusion and flanking residues not given here
notes: Tested as phage isolate displaying the peptide (TN9 library); The synthetic peptide form is a separate molecule; also called TN9 isolate H03
With B1, the ELISA signal in test [3] was 0.8. Besides, the relative binding in test [4] worked out at 85.

B2: A01-TN8 phage isolate (peptide, not shown: large carriers)
peptide: FFCSFWHGGCDD
modifications: disulfide 3-10 (inferred); also: displayed on M13 phage, coat protein fusion and flanking residues not given here
notes: Tested as phage isolate displaying the peptide (TN8 library); The synthetic peptide form is a separate molecule; also called TN8 isolate A01
B2: the ELISA signal in test [3] is 1.6. Further, the relative binding in test [4] turned out to be 52.

B3: TN7 isolate D11 (peptide, not shown: large carriers)
peptide: LFCSFWYNCDA
modifications: disulfide 3-9 (inferred); also: displayed on M13 phage, coat protein fusion and flanking residues not given here
notes: Tested as phage isolate displaying the peptide (TN7 library)
As to B3, the ELISA signal in test [3] is 0.9. In addition, in test [4], the relative binding stood at 35.

B4: TN7 isolate F12 (peptide, not shown: large carriers)
peptide: LFCSFWYNCDD
modifications: disulfide 3-9 (inferred); also: displayed on M13 phage, coat protein fusion and flanking residues not given here
notes: as for B3
Turning to B4, the ELISA signal in test [3] came to 0.9.

B5: TN7 isolate A07 (peptide, not shown: large carriers)
peptide: FFCGFWHDCHP
modifications: disulfide 3-9 (inferred); also: displayed on M13 phage, coat protein fusion and flanking residues not given here
notes: as for B3
For the molecule B5, the ELISA signal in test [3] amounted to 0.7. Besides, the relative binding in test [4] is 27.

B6: TN7 isolate B11 (peptide, not shown: large carriers)
peptide: FFCALWPSCHH
modifications: disulfide 3-9 (inferred); also: displayed on M13 phage, coat protein fusion and flanking residues not given here
notes: as for B3
With B6, the ELISA signal in test [3] is 0.5. In test [4], the relative binding is 31.

B7: TN7 isolate B12 (peptide, not shown: large carriers)
peptide: LFCHFWYNCDF
modifications: disulfide 3-9 (inferred); also: displayed on M13 phage, coat protein fusion and flanking residues not given here
notes: as for B3
On to B7, for which, in test [3], the ELISA signal came to 0.7. Besides, the relative binding in test [4] stood at 29.

B8: TN8 isolate D06 (peptide, not shown: large carriers)
peptide: HFCHFWFGGCPH
modifications: disulfide 3-10 (inferred); also: displayed on M13 phage, coat protein fusion and flanking residues not given here
notes: Tested as phage isolate displaying the peptide (TN8 library)
Regarding B8, in test [3], the ELISA signal was 1.3. Besides, in test [4], the relative binding worked out at 40.

B9: TN9 isolate D01 (peptide, not shown: large carriers)
peptide: FCWLWPSSDCF
modifications: disulfide 2-10 (inferred); also: displayed on M13 phage, coat protein fusion and flanking residues not given here
notes: Tested as phage isolate displaying the peptide (TN9 library)
B9: the ELISA signal in test [3] is 0.7. The relative binding in test [4] was 36.

B10: TN8 isolate A05 (peptide, not shown: large carriers)
peptide: AFCHFWFHGCDD
modifications: disulfide 3-10 (inferred); also: displayed on M13 phage, coat protein fusion and flanking residues not given here
notes: as for B8
Turning to B10, the ELISA signal in test [3] was determined as 1.3. Further, the relative binding in test [4] came out at 30.

B11: TN7 isolate H09 (peptide, not shown: large carriers)
peptide: LFCRFWYNCSA
modifications: disulfide 3-9 (inferred); also: displayed on M13 phage, coat protein fusion and flanking residues not given here
notes: as for B3
B11: the ELISA signal in test [3] was 0.6.

B12: TN7 isolate C11 (peptide, not shown: large carriers)
peptide: FFCQYWYNCD
modifications: disulfide 3-9 (inferred); also: displayed on M13 phage, coat protein fusion and flanking residues not given here
notes: Tested as phage isolate displaying the peptide (TN7 library); Last template position printed as '-' (10 residues)
For B12, the ELISA signal in test [3] was determined as 0.7. For the same molecule, the relative binding in test [4] turned out to be 26.

B13: TN9 isolate E03 (peptide, not shown: large carriers)
peptide: FCHLWWPFQCA
modifications: disulfide 2-10 (inferred); also: displayed on M13 phage, coat protein fusion and flanking residues not given here
notes: as for B9
Take B13: in test [3], the ELISA signal is 0.8. Moreover, the relative binding in test [4] is 40.

B14: TN9 isolate A06 (peptide, not shown: large carriers)
peptide: FCQLWWPFQCA
modifications: not fully specified (bridges); printed as Phe-Cys-Gln-Leu-Trp-Trp-Pro-Phe-Gln-Cys-Ala; cysteine pairing not given here
notes: Tested as phage isolate (TN9 library)
In the case of B14, in test [3], the ELISA signal came out at 0.7.

B15: TN7 isolate E11 (peptide, not shown: large carriers)
peptide: FCRFWYGCHP
modifications: disulfide 2-8 (inferred); also: displayed on M13 phage, coat protein fusion and flanking residues not given here
notes: Tested as phage isolate displaying the peptide (TN7 library); First template position printed as '-' (10 residues)
Regarding B15, in test [3], the ELISA signal stood at 0.6. Moreover, the relative binding in test [4] is 33.

B16: TN7 isolate A12 (peptide, not shown: large carriers)
peptide: FSCLWFPFCPD
modifications: disulfide 3-9 (inferred); also: displayed on M13 phage, coat protein fusion and flanking residues not given here
notes: as for B3
Turning to B16, the ELISA signal in test [3] came out at 0.5. Moreover, in test [4], the relative binding turned out to be 28.

B17: TN9 isolate F01 (peptide, not shown: large carriers)
peptide: LCPAHWQFWCD
modifications: disulfide 2-10 (inferred); also: displayed on M13 phage, coat protein fusion and flanking residues not given here
notes: as for B9
Regarding B17, the ELISA signal in test [3] was found to be 0.5.
